Drawing on US20190153103A1 (AbbVie / Abbott, published 2019), this text covers Kd for 2 molecules.

One experiment concerns the target T1, BMP4-his (human, UniProt P12644 293-408, limits assumed).
T1 construct: not shown: his tag
T1 sequence (looked up): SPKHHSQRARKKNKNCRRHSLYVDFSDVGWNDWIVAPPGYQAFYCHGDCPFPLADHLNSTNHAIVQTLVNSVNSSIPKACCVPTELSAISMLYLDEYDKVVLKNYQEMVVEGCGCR
As to the kind of experiment: SPR, Biacore T200: BMPR1B-Fc captured on anti-human capture chip, BMP4-his injected at 31.3-500 nM, 1:1 model.

Experiment [1] addresses T2, hBMPR1B-His (human BMPR1B extracellular domain, residues K14 to R126, with C-terminal 9x-Histidine tag) (human, UniProt O00238 14-126).
T2 construct: Residues K14-R126 are counted on the hBMPR1B ORF (NM_001203); The IgK signal peptide of the vector is left out; also called hBMPR1B-CHis; human BMPR1B-his
T2 sequence: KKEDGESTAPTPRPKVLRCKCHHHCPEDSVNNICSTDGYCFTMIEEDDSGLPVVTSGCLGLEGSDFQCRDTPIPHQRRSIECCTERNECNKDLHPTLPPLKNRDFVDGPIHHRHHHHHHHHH
As to the kind of experiment: SPR, Biacore T200: BMP2-Fc captured on anti-human capture chip, BMPR1B-his injected at 2.5-40 µM, 1:1 model. (In general: Surface plasmon resonance follows binding to a sensor surface in real time, without labels.)

B1: hBMPR1B-Fc (human BMPR1B extracellular domain, residues K14 to R126, fused to human IgG2 Fc) (Fc fusion)
chain: KKEDGESTAPTPRPKVLRCKCHHHCPEDSVNNICSTDGYCFTMIEEDDSGLPVVTSGCLGLEGSDFQCRDTPIPHQRRSIECCTERNECNKDLHPTLPPLKNRDFVDGPIHHR
notes: also called BMPR1B fused to human Fc fragment; not shown: human IgG2 Fc protein
By Kd is commonly meant the concentration at which binding is half-saturated. In the experiment with BMP4-his, B1 had a Kd of 0.0012 µM.

B2: BMP2 fused to a human Fc fragment (Fc fusion, UniProt P12643 283-396, looked up)
chain: QAKHKQRKRLKSSCKRHPLYVDFSDVGWNDWIVAPPGYHAFYCHGECPFPLADHLNSTNHAIVQTLVNSVNSKIPKACCVPTELSAISMLYLDENEKVVLKNYQDMVVEGCGCR
notes: not shown: human Fc fragment
Turning to B2, in experiment [1], the Kd is 61 µM.
